For 22 molecules, binding score results are on record in publication PMC10720262 (2023).

This assay concerns the target PfCSP full length (Plasmodium falciparum (isolate NF54), UniProt P19597). Briefly: ELISA AUC.

PfCSP full length, sequence (P19597 20-375): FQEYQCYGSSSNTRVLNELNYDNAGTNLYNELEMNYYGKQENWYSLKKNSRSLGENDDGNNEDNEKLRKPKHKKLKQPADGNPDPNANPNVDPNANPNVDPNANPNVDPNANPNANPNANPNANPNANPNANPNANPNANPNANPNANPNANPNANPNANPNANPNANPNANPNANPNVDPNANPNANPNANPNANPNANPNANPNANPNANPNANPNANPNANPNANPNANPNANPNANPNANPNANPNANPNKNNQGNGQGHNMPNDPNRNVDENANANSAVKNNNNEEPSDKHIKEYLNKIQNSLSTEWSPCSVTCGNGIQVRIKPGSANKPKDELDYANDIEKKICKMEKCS

B1: CL-512469 (antibody, V domains shown)
VH: QMQLVESGGGVVQPGRSLTLSCEASGFTFSNYGMHWVRQAPGKGLEWVAIIWFDGSHRFYADAVEGRFTISRDNSKNTLFLQMTSLRAEDAAVYYCARVGQFSSSSWGAFDIWGQGTVVTVSS
VL: EIVLTQSPGTLSLSPGESVTLSCRASQIISNTHLAWYQQKPGQAPSLLIYGASSRATGIPDRFSGSGSGTDFTLTISRLEPEDFAVYYCQQYGRLWTFGQGTKVEIK
modifications: peptides N-terminally acetylated and C-terminally amidated
B1: the binding score came out at 1.99.

B2: CL-442127 (antibody, V domains shown)
VH: QAQLVESGGGVVQPGKSLRLSCAASRFTFRNYGMHWVRQGPVKGLEWVALIWHDGSNKFYSDSVRDRFTISRDNSKNKLFLQMNSLTADDTALYYCVRSNYDGSGTYGWFGPWGQGTLVTVSS
VL: EIVLTQSPGTLSLSPGERATLSCRASQSVISNYLAWYQQKPGQAPRLLIYGASTRDIGIPDRFSGSGSGTDFTLTISRLEPEDFAVYFCHQYGSSFTFGPGTKVDFK
modifications: peptides N-terminally acetylated and C-terminally amidated
Molecule B2 gave a binding score of 2.3.

B3: Ky15.10 (antibody, V domains shown)
VH: QVQLVESGGGVVQPGRSLRLSCAASGFTFSNSGMHWVRQVPGKGLEWVAIIWYDGSNKYYADSVKGRFSVSRDNSENTLYLQMSNLRAEDTAVYYCVRAYFDSENLYDYYGMDVWGQGTTVTVSS
VL: DIQMTQSPSTLSASVGDRVTITCRASQSISRWLAWFQKKPGKAPKLLIYTASNLESGVPSRFSGSGSGTEFTLTISSLQPDDFATYYCQQYYNYWTFGQGTKVEVK
modifications: peptides N-terminally acetylated and C-terminally amidated
In turn, B3 showed a binding score of 2.17.

B4: CL-512564 (antibody, V domains shown)
VH: QVQLVESGGGVVQPGRSLRLSCAASGFTFSNSGMHWVRQAPGKGLEWVAIIWYDGSHKFYADSVKGRFTISRDNSKNTLYLQMNSLRIEDTAMYYCVRSYNWNYPVRGDYKYGMDVWGQGTTVTVSS
VL: DIQMTQSPSTLSASVGDRVTITCRASQSISSWLAWFQQKPGKAPNLLIYMASSLQSGVPSRFSGSGSGTEFTLTISSLQPDDFATYYCQQFNTYWTFGQGTKVEIK
modifications: peptides N-terminally acetylated and C-terminally amidated
Regarding B4, the binding score is 2.14.

B5: CL-444906 (antibody, V domains shown)
VH: QVQLVESGGGVVQPGRSLRLSCTASGFTFSTYGMHWVRQAPGKGLEWVAIIWYDGSNKFYADSVKGRFTISRDNSKDTLYLQMNSLRAEDTAIYYCARAWDKVDDKYGMDVWGQGTTVTVSS
VL: not shown
modifications: peptides N-terminally acetylated and C-terminally amidated
Molecule B5 displayed a binding score of 2.6.

B6: CL-512206 (antibody, V domains shown)
VH: QVQLVESGGGVVQPGRSLRLSCAASGFTFSHYGMHWVRQAPGKGLEWVAVIWYDGNNKFYADSVKGRFTISRDNSNNTLYLQMNSLRAEDTAVYHCVRERTGATSRGFDFWGQGTLVTVSS
VL: QSVLTQPPSVSAAPGQKVTISCSGSDSNIEKYYVSWYQQLPGSAPKLLIYDNNKRPSGIPDRFSGSKSGTSATLGITGLQTGDEAVYYCGTWDSSLSTGVFGGGTKLTVL
modifications: peptides N-terminally acetylated and C-terminally amidated
Molecule B6 yielded a binding score of 1.86.

B7: CL-444639 (antibody, V domains shown)
VH: QVQLVESGGGVVQPARSLRLSCAASGFTFSSYGMHWVRQAPGKGLEWVAVIWYDGSNKYYADSVKGRFTISRDNSKNTLYLQMNSLRAEDTAVYYCAKVGDFYGSGSYPHYYGMDVWGQGTTVTVSS
VL: not shown
modifications: peptides N-terminally acetylated and C-terminally amidated
For the molecule B7, the binding score came to 2.4.

B8: CL-512296 (antibody, V domains shown)
VH: QVQLVESGGGVVQPGRSLRLSCAASGFTFSNYGMHWVRQAPGKGLEWVAVIWYDGSKKFYADSVMGRFTISRDNSKNTLVLQMNSLGAEDTAVYYCARDRGYSGYVFDYWGQGTLVTVSS
VL: QSALTQPASVSGSPGQSIAISCTGTSSDVGGYNFVSWYRHHPGKAPKLMIYDVSNRPSGVSNRFSGSKSGNTASLTISGLQAEDEADYYCCSYAGSCSVFGGGTKLTVL
modifications: peptides N-terminally acetylated and C-terminally amidated
On to B8, for which the binding score came to 1.86.

B9: CL-444424 (antibody, V domains shown)
VH: QVQLVESGGGVVQPGRSLRLSCTASGFTFSNYGMHWIRQAPGKGLEWVAIIWFDGSSQYYADSVKGRFTISRDNSKNTLYLQMNSLRAEDTAVYYCVRALYDSGSLFDFWGLGTLVTVSS
VL: DIQMTQSPSTLSASVGDRVTITCRASQNISSLLAWYQQKPGKAPKLLIYKASSLESGVPSRFSGNGSGTEFTLTVSSLQPDDFATYSCLQYNNYWTFGQGTKVEIK
modifications: peptides N-terminally acetylated and C-terminally amidated
With B9, the binding score stood at 2.3.

B10: CL-512870 (antibody, V domains shown)
VH: QVQLVESGGGVVQPGRSLRLSCEASGFTFSHYGMHWVRQAPGRGLEWVAIIWYDGSNTYYRDSVKGRFTISRDNSKDTLFLQMNSLRPDDTAVYYCARALYYDSGSLFDFWGQGTLVTVSS
VL: DIQMTQSPSTLSASVGDRVTITCRASQSISSWLAWYQQKPGKAPKLLIYKASSLETGVPSRFSGSGFGTEFTLSISSLQPDDFATYYCLQYNIYWTFGQGTKVEIK
modifications: peptides N-terminally acetylated and C-terminally amidated
As for B10, the binding score amounted to 2.23.

B11: CL-510416 (antibody, V domains shown)
VH: QVQLVESGGGVVQPGRSLRLSCEASGFTFSNYGMHWVRQGPGKGLEWVALMWYDGSNKYYSDSVKGRFTISRDNSKSTLYLQMNSLRAEDTAVYYCARPITGNTHSKYTMDVWGQGTTVTVSS
VL: DIQMTQSPSTLSASVGDRVTITCRASQSISSWLAWYQQKPGKAPKLLIYKASTLESGVPSRFSGSGSGTEFTLTISSLQPDDFATYFCQQYNSYWTFGQGTKVEIK
modifications: peptides N-terminally acetylated and C-terminally amidated
Molecule B11 had a binding score of 2.57.

B12: CL-513274 (antibody, V domains shown)
VH: QVQLVESGGGVVQPGRSLRVSCAASGFTFSNYGMYWVRQAPGKGLEWVALIWHDGSNKFYEDSVKGRFTISRDNSKNTLYLQMNSLRAEDTAVYYCARAGYFQGSGSFLDYWGQGTLVTVSS
VL: DIQMTQSPSTLSASVGDRVTITCRASQSISTWLAWYQQKPGKAPKLLIYKASSLESGVPSRFSGSGSGTEFTLTISSLQPDDFATYFCQQYSSYWTFGQGTKVEIK
modifications: peptides N-terminally acetylated and C-terminally amidated
Turning to B12, the binding score turned out to be 2.23.

B13: CL-531969 (antibody, V domains shown)
VH: QVQLVESGGGVVQPGRSLRLSCAASGFTFSSSGMHWVRQAPGMGLEWVAIIWYDGSNKFYADSVKGRFTISRDNSKNTLYLQMNSLRAEDTAVYYCARAYVSGNYGDNYGMDVWGQGTTVTVSS
VL: DIQMTQSPSTLSASVGDRVTITCRASQSISSWLAWFQQKPGKAPKLLIYKASSLESGVPSRFSGSGSGTEFTLTINSLQPDDFATYFCQQYNYYWTFGQGTKVEIK
modifications: peptides N-terminally acetylated and C-terminally amidated
In turn, B13 gave a binding score of 2.5.

B14: CL-509370 (antibody, V domains shown)
VH: QVQLVESGGGVVQPGRSLRLSCAASGFTFSSYGMHWVRQAPGKGLEWVAVIWYDGSNKFYADSVKGHFTISRDNSKNTLYLQMNSLRAEDTAVYYCARDGRDLRGTGPYFDPWGQGTLVTVSS
VL: EIVMTQSPATLSVSPGERAILSCRASQSVSSNLAWYQQKPGQAPRLLIYGASIRATGIPARFRGSGSGTEFTLTISILQSEDFAVYYCQQYNNWITFGQGTRLEIK
modifications: peptides N-terminally acetylated and C-terminally amidated
Molecule B14 returned a binding score of 2.09.

B15: CL-445635 (antibody, V domains shown)
VH: QVQLVESGGAVVQPGTSLRLSCAASGFTFSNYGMHWVRQAPGKGLQWVALIWYNGNNKFYAESVEGRFIISRDNSKNILFLQMNSLSAEDTAVYYCARAFYYDSGNYLDYWGPGSLVTVSS
VL: DIQMTQSPSSVSASVGDRVTITCRARQDISSRLAWYQQKPGKAPKILIYGASSLQSGVPSRFSASGSGTDFTLTISSLQPEDFATYYCQQANSFPWTFGQGTKVEIK
modifications: peptides N-terminally acetylated and C-terminally amidated
Take B15: the binding score is 2.4.

B16: CL-531237 (antibody, V domains shown)
VH: QVQLVESGGGVVQPGTSLRLSCVASGFTFSNFGIHWFRQAPGKGLEWVSLIWYDGKNKFYAESVTGRFTISRDNSKNTVYLQMSSLRAEDTAVYYCARSYYYDSGNYFDYWGQGTLVTVSS
VL: DIQMTQSPSSVSASVGDRITITCRASQGISSRLAWFQQKPGKAPNFLIYGTSSLQSGVPSRFSGSGSGTDFTLTISSLQPEDSATYYCQQANSYPWTFGQGTKVEIK
modifications: peptides N-terminally acetylated and C-terminally amidated
Molecule B16 returned a binding score of 2.18.

B17: CL-511771 (antibody, V domains shown)
VH: QVQLVESGGGVVQPGRSLRLSCAASGFTFSNSGMHWVRQAPGKGLEWVAIIWYDGSNKYYAESMKGRFTISRDNSKNTLYLQMNSLRAEDTAVYYCARDGTTNAFDLWGQGTMVTVSP
VL: not shown
modifications: peptides N-terminally acetylated and C-terminally amidated
In turn, B17 had a binding score of 2.64.

B18: CL-510484 (antibody, V domains shown)
VH: QVQLVESGGGVVQPGRSLRLSCAASGFTFSNYGMNWVRQAPGKGLEWMAVIWYDGSNKYYGDSVKGRFTISRDNSKNTLYLQMISLRAEDTAVYFCAKSGEFYGSGSHFDYWGQGTLVTVSS
VL: not shown
modifications: peptides N-terminally acetylated and C-terminally amidated
Take B18: the binding score amounted to 2.03.

B19: CL-440582 (antibody, V domains shown)
VH: QVQLVESGGGVVQPGRSLRLSCAASGFTLNNYGIHWVRQAPGKGLEWLSLIWYDGSNKFYADSVKGRFTVSRDNSQNTVSLHMSSLSVDDTAVYYCARPGIGVPGDKYTMDVWGQGTTVTVSS
VL: DIQMTQSPSTLSASVGDRVTITCRASQTISAWLAWYQQKLGKAPKILIYKASILESGVPSRFSGSGSGTEFTLTINSLQPDDFATYYCQQYNYDWTFGQGTKVEIN
modifications: peptides N-terminally acetylated and C-terminally amidated
As for B19, the binding score turned out to be 2.6.

B20: CL-513701 (antibody, V domains shown)
VH: QVQLVESGGGVVQTGRSLRLSCTASGFIFSNYGMYWVRQAPGKGLEWVALIWYDGSNKYYVDSVKGRFTISRDNSKNTLYLQMNSLRAEDTAVYYCARAGKYSGSGSYLDSWGQGTLVTVSS
VL: DIQMTQSPSSVSASVGDRVTITCRASQGISSWLAWYQQKPGKAPKLLIYTASSLQSGVPSRFSGSGSGTDFTLTISSLQPDDFATYFCQQYSRYWTFGQGTKVEIK
modifications: peptides N-terminally acetylated and C-terminally amidated
On to B20, for which the binding score turned out to be 2.54.

B21: CL-513041 (antibody, V domains shown)
VH: QEHLVESGGGVVQPGRSLRLSCAASGFTFSNSGMHWVRQAPGKGLEWVAVIWYDGSNKFYADSVRGRFTISRDNSNNTLYLQMNSLRAEDTALYYCARDRLFSGSWNWFDPWGQGTLVTVSS
VL: EIVLTQSPATLSLSPGERATLSCRASQSVSTYLAWYQQKPGQAPRLLIYDASNRATGIPARFSGSGSGTDFTLTISSLEPEDFAVYYCQQRSNWFTFGGGTKVEIK
modifications: peptides N-terminally acetylated and C-terminally amidated
Molecule B21 displayed a binding score of 2.13.

B22: CL-509940 (antibody, V domains shown)
VH: QVQLVESGGGVVQPGRSLRLSCAASGFTFSTYGMHWVRQAPGKGLEWVAVIWYDGSIKFYADSVKGRFTISRDDSKNTLYLQMNSLRAEDTAVYYCARDGGYSDSGRFGWFDPWGQGNLVTVSS
VL: EIVMTQSPVTLSVSPGERVTLSCRASQSVSSNLAWYQQKPGQAPRLLIYGASNRATGIPDRFSGSGSGTEFSLTVTSLQSEDFAVYYCQQYNQWRTFGQGTKVEIR
modifications: peptides N-terminally acetylated and C-terminally amidated
In the case of B22, the binding score came to 2.09.
